The DeepSol protein solubility set

experiment: soluble on expression in E. coli; label from the status in PepcDB or PDB records

Row | Sequence | soluble on expression in E. coli
1 | MGRAAEVPGPEPGQQEQLVFGSGDAVELSCPPPGGGPMGPTVWVKDGTGLVPSERVLVGPQRLQVLNASHEDSGAYSCRQRLTQRVLCHFSVRVTDAPSSGDDEDGEDEAEDTGVDTGAPYWTRPERMDKKLLAVPAANTVRFRCPAAGNPTPSISWLKNGREFRGEHRIGGIKLRHQQWSLVMESVVPSDRGNYTCVVENKFGSIRQTYTLDVLERSPHRPILQAGLPANQTAVLGSDVEFHCKVYSDAQPHIQWLKHVEVNGSKVGPDGTPYVTVLKTAGANTTDKELEVLSLHNVTFEDAGEYTCLAGNSIGFSHHSAWLVVLPAEEELVE | soluble
2 | MSPENKICMEQSEDGDLDAGDELFEEVDGDGKGEIFANRELLNIDHVPDENRIVGRDEHITELANEIGPAVTGSPPNSVILYGKTGSGKSLVANHVMERARREAQRRDRRLATVTVDCAQSRGEADTVQTIADKINRSTSGVTVPTRGISTNEYYNRLWQILGTEYDAALITLDEVDRLSDDDILMILSRAREAGKVDVPIGIISISNKVNFREQMTERVKSSLGHNEMIFDPYDGEQLRQILENRKDAFQEDILMPGVIPKTAALAAQRHGDARKAIRLLRHAGDYAKTNNIGTVKESHLELAQEQAEVERLKELISGLPPHSKYVLYALANLTDGTTNSNDWFRTTVIYDVYEEVCKTEATDTLTTDTIRGLLNELAFLEITESNQEHGGMGKGTYKEHRLLWDPNVVFKMNPGSAQVDTDR | not soluble
3 | MPPTPEVGLPLWLLAELTYRCPLQCPYCSNPLDFAAQGQELSTEQWFKVMAEAREMGAAQIGFSGGEPLVRQDLAQLIAEARRLGYYTNLITSGIGLTEARIADFKKAGLDHIQISFQASDEQVNNLLAGSKKAFAQKLEMARAVKAHGYPMVLNFVTHRHNIDKIDRIIELCIALEADFVELATCQFYGWAHLNRLGLLPTRAQLERAERITNEYRDKLKAEGNPCKLIFVTPDYYEERPKACMNGWGNLFLTITPDGTALPCH | not soluble
4 | SAGTGLVAGEVVVDALPYFDQGYEAPGVREAAAALVEEETRRYRPTKNYLSYLTAPDYSAFETDIMRNEFERLAARQPIELLSMKRYELPAPSSGQKNDITAWQECVNNSMAQLEHQAVRIENLELMSQHGCNAWKVYNENLVHMIEHAQKELQKLRKHIQDLNWQRKNMQLTAGSKLREMESNWVSLVSKNYEIERTIVQLENEIYQIKQQHGEANKENIRQDF | soluble
5 | MAHHHHHHMNKSTVAGELRNIFSQGTNAYTVELYNAFYRDGTLSLVMEYMDWGNLEELIAICPTIPEPACAYIASQILHALQILHTKANHPTETDKKGRRQIHRDIKPANVMLSKNGVVKLTDFGIAASAETIGVNSFVGTATYMSPERIQGRNYSTPSDIWSVGVLTAQLLLGRFPFSAAEGGFMALLRQVTECCSLSLVDQCACSQKAEDFINHCICRNPDDRSTAIELLQHEWIVQNASNGKDVLTGLLGTVGEPAASSESDNS | not soluble
6 | SNANNLFVYCEIEEGIVADVSLELLTKGRSLANELNCQLEAVVAGTGLKEIEKQILPYGVDKLHVFDAEGLYPYTSLPHTSILVNLFKEEQPQICLMGATVIGRDLGPRVSSALTSGLTADCTSLEIGDHEDKKEGKVYKNLLYQIRPAFGGNIVATIVNPEHRPQMATVREGVMKKEIVSPAYQGEVIRHDVKKYVADTDYVVKVIERHVEKAKNN | soluble
7 | MTEVEKSRSGRIVKRKVFADFQQLDDDLKSITTEELRESASESKKLRLGPTRRSCRNIPTNYEELKAKTDAGIIPETVYYRASNNSMYIPSITADMLKNDGNDLTVQTRSDKYFKYNRVRQSTKIDYAEPEKVYDIIYAVRKRPILWDQRLICHRNSNLSRRAWDQLDLELGIDEEYPLARRKQIWKSKRDYFVSAVNAANLRKWIYADALEFYRPMINFRTTFCLRPTVAQPSQSVHDKLVLADKNIQCTPGDKKNVLTFLLKSLYDTGMSSPEMMAEHGLEILKIFKKNAESSNLKLN | not soluble
8 | MKKAVVVFSGGQDSTTCLVQALKEFDEVHAITFDYGQRHKLEIEVAQKIAKDLGVKAHKVMDVGLLNELAISSLTRDDIPVSHELQENGLPNSFVPGRNILFLTLAGIYAYQIGADTVITGVCETDFSGYPDCRDDFVKSMNTALVKGMDRALTIKTPLMWLNKAETWALADQYNALQLVRENTLTCYNGIIGDGCGDCPSCDLRKAGLDEYLNNKDAVMKSLVQKQESEGL | not soluble
9 | MFGKQLFEEVGSKISETIANSPAKDVEKNIKAMLGGAFNRMDLVTREEFDIQQQVLIKTRTKLAALEARLEKLEAAQNPERAALEAAEAAAE | not soluble
10 | MPQSESNIALLIDADNAPASKIEAIVSEIAKYGVANIRKAYGNWKSPNLKAWEECLHEYAIRPVQQFDYTKGKNATDAAMIIDAMDLLYTQRLDAFAIVSSDCDFTPLVMRILTNGLKVYGFGEKKTPLPFVYACSTFLYLESIDQIENSEGATQSSTSVKKTGKELKQDAKLISLLRSAISSTIDDDGWSSLAEIGGHIKNQASFDSRNYGYAKLSSLFEAIDLFEIERKNRAIYVRNRQKKSATSKSLEHHHHHH | soluble
11 | STSELDIFVGNTTLIDEDVYRLWLDGYSVTDAVALRVRSGILEQTGATAAVLQSDTMDHYRTFHMLERLLHAPPKLLHQLIFQIPPSRQALLIERYYAFDEAFVREVLGKKLSKGTKKDLDDISTKTGITLKSCRRQFDNFKRVFKVVEEMRGSLVDNIQQHFLLSDRLARDYAAIVFFANNRFETGKKKLQYLSFGDFAFCAELMIQNWTLGAVDSQMDDMDMDLDKEFLQDLKELKVLVADKDLLDLHKSLVCTALRGKLGVFSEMEANFKNLSRGLVNVAAKLTHNKDVRDLFVDLVEKFVEPCRSDHWPLSDVRFFLNQYSASVHSLDGFRHQALWDRYMGTLRGCLLRLYHD | soluble
12 | GHMEVTLIVFHAGSLSVPFQEVEKEFSEYAERNLGIKVSFQDEASGSVMAVRKVTDLGRKADVIGVADYTLIPQLLIPNYTDFYVLFATNEIVIAFTDKSRYVEEMKSNPDKWYEILAREDVRFGFSDPNQDPCGYRSLMVIKLADLYYGKEIFKELIEENTNIYSNGTQIYAPKEITVNPGKIVIRPKETDLLGLVESGSIDYIFIYKSVAKQHNLSYITLPSEINLGDFSKEKFYGQISITLGSTGKTIKAKPIVYGVTVLKDAPNREVAIEFLRYLLSENGKRIFEKNHQDFL | soluble
13 | MTLKELLVGFGTQVRSIWMIGLHAFAKRETRMYPEEPVYLPPRYRGRIVLTRDPDGEERCVACNLCAVACPVGCISLQKAETKDGRWYPEFFRINFSRCIFCGLCEEACPTTAIQLTPDFELGEYKRQDLVYEKEDLLISGPGKYPEYNFYRMAGMAIDGKDKGEAENEAKPIDVKSLLP | not soluble
14 | MGSDKIHHHHHHMATKHEQILQYITNLEVGEKISVRRIAKDLQVSEGTAYRAIKEAENQGLVSTIERVGTIRIEKKQKENIEKLTYAEVVNIVDGQVLGGRDGLHKTLNRFVIGAMKLDAMMRYVEPGNLLIVGNRYQVHQIALEAGAAVLITGGFDTSDEAIKLADELDLPVISTSYDTFTVATMINRAIYDQLIKKEITLVDDILIPLQDTYYMTTENVVGKWHELNEKTGHSRYPVIDENMKIQGMVAAKDVLNASRHTPIEKVMTKNPITVSERTSVAAVAHVMVWEGIELLPVIDSHRKLIGVVSRQDVLKALQMIQRQPHVGETIEDLMTNGLNESSSDQGDSYEVEITPQMTNQLGTISHGVMTSLVIESGSRVLRKYKKGDLVVENITLYFLKPVQIDSRLTIRPRVLEIGRKHGKIDVEMYHEGEIVGKALFMAQIID | not soluble
15 | MGSDKIHHHHHHVENWDEVRTAYQVARLGTVSGAADVLGVHHATVIRHIDAIEARLGVKLFQRHARGYTATEAGLDLLRVAQATDDQFSQLVGRLKGQGDEVSGELVVTSLSSMAPMLAPALAEFQQLHPDLVIRYLTGDRLFRLEYGEAHVALRAGAAPEQPDNVVQPFVAQRLALYASREYVERHGMLKGQDDMVNHRFIASDNENTRAPFERWLRSTIPAENIVFRCSDAVAGHQAIRAGAGIGFVSLWEAASSPDLVMMMDPHDEWSGKIWLVTHVDLHRTNKVQSFVRFLKEHAKSWPQ | not soluble
16 | MPQFASKAEEKNYYERQASLAEFLTWYHQQELPEYEKPSLTVDMVLLCYNKEADQLKVLLIQRKGHPFRNSWALPGGFVNRNESTEDSVLRETKEETGVVISQENIEQLHSFSRPDRDPRGWVVTVSYLAFIGEEPLIAGDDAKEVHWFNLERHGQHITLSHEDVEITLDLKTAASLGKDTLAFDHSEIIIKAFNRVVDKMEHEPQVLQVLGKDFTITEARKVFAKFLGVDYRSIDHSNFKKAMTQYFEELGERPVGIGRPSKIYQLKTTTGF | soluble
17 | MGSDKIHHHHHHMNKYIMLLMVSLLSACSSTPRKPIPDDPFYAPVYPDAPATQTAATGSIFLDSQASSLYSDIRAHKIGDIITVVLMESTQAKKSATNDIKKGSDMSMDPLFAGGGNVTIKGVPLDLKYKDAYNTKRESDADQSNSLAGSISANVMQVLSNGNLVIRGEKWISINNGDEFIRVTGIVRSQDIKPDNTIESVRVANARIQYSGTGTFADAQKVGWLGQFFLGEWWPF | not soluble
18 | KVVLISDVHVGSSQFLEDAWLDFLDFLKGESDSEEMREIASQVRYLVVAGDLVDGIGIYPDQEMELDILDVYEQYRKAADYFKEIPRHIRVIISPGNHDAVRQAEPQPALPERICADFPENVTFVGNPALVDLDGIRILIYHGRSIDDLVASVPGVSYHEPAGAVLEMLKRRHLAPTYGSRVSISPEKKDYFIIDPVPDIIHTGHVHTLGVQRYKNVLLVNSGTWQAQTEFQKRVNLVPVPARVPVVDLADFDVKILAFD | not soluble
19 | MADNWGSENVVADAAPATEAPEVALFGKWSLQSVNVSDISLVDYIPVKEKSAKYLPHSAGRFQVRRFRKAACPIVERLANSLMMHGRNNGKKLMTVRIVKHAFEIIYLLTGENPVQVLVNAVINSGPREDSTRIGRAGTVRRQAVDVAPLRRVNQAIWLLCTGAREAAFRNVKTIAECLADELINAAKGSSNSYAIKKKDELERVAKSNR | not soluble
20 | MSLKDSEVTVLGAGVAGLAVARALALRGAEVTVLEQAEAIREVGAGLQISPNGAAVLRALGLGDALEAASMRAQAVELRNGVGGDLVLKLDLARLRPGQGYHLMHRADLIDLLAQGAREAGVQIRLLQKIEAVDLGGPRPRLVTAQGAEYAPNLLIGADGLHSLVRAELNGPAQPFFTNQVAWRTVIPATPGEPVVAEVHMGEGRHLVSYPMRGGTVRNIVAVEERKRWVQEGWNLRDDPVDLRLAFAGFNGRVRHWLEQVPDVWLWGLFRHPVAHTWYRGHAAILGDAAHPTLPFLAQGANMALEDAWVLAECLARHSNIKGGLADYQARRVPRCCRVVQAANNNAWAYHLRSPIREIAHLGLRLGSRLLPGPTLRRFDWLYGYDVTAASLEHHHHHH | soluble
21 | MKSYTKHTHTNRLASESSPYLLQHAHNPVEWFPWGEEALQKAKAEDKPILVSIGYSACHWCHVMEHECFEKEEVAAVMNDLFINIKIDREERPDLDQIYMDAVSAMGLRGGWPLNVFLTPDAKPFYGGTYFPQDHWLNLLGQISNAYLNHREDILKSAESFTESLNQSDVF | not soluble
22 | MAPTPKFGPKKIQNVSAVSCSVKKYQASTSSPVPILNVQERVELRKLEQMLPVSPKNCDPADVVLRAASYIDQLVATVQARVKNGTLPMGALSSLPPQYSKPIKSSRRTVSSKKSRRSMEKKR | not soluble
